Measurements reported in article PMC5109273.

What was measured:
TAP (Homo sapiens) = TAP (Homo sapiens) (UniProt Q03518); details: cited from earlier work
[1] = target: ICP47-TAP fusion complex with fused ICP47(∆1-11) (UniProt P03170); test: co-IP; HEK293T co-transfected 1:1:5 (TAP1:TAP2:viral factor); solubilised in 2% digitonin; sequential precipitation via SBP tag (streptavidin agarose, biotin elution) and C8 tag (anti-C8 antibody on Dynabeads); co-precipitated mVenus-tagged viral factor quantified by SDS-PAGE and in-gel fluorescence relative to TAP lacking fused ICP47; on ice, pH 7.4

Sequence of UniProt Q03518 (Q03518 whole entry, chain 1 of 2, the tested form may be a part): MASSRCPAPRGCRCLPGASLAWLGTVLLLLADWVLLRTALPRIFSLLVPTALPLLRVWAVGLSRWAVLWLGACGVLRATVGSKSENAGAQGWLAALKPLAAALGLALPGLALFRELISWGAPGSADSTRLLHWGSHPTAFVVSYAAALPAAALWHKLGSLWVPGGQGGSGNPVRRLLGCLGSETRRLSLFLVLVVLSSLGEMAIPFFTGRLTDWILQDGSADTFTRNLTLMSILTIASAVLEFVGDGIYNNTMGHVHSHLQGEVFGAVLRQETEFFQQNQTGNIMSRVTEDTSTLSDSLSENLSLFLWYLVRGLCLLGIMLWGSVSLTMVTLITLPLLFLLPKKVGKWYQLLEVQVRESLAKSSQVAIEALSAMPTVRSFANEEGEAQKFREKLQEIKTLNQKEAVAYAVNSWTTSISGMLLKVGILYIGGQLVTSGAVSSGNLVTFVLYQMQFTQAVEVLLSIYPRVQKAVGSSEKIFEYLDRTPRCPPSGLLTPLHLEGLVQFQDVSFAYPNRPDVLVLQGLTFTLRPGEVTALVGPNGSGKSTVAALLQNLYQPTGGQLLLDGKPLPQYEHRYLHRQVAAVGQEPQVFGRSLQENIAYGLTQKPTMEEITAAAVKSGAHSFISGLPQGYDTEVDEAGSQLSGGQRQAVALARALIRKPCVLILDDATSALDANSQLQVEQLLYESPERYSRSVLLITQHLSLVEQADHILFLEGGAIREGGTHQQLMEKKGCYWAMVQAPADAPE
Sequence of UniProt Q03518 (Q03519 whole entry, chain 2 of 2, further chain, the tested form may be a part): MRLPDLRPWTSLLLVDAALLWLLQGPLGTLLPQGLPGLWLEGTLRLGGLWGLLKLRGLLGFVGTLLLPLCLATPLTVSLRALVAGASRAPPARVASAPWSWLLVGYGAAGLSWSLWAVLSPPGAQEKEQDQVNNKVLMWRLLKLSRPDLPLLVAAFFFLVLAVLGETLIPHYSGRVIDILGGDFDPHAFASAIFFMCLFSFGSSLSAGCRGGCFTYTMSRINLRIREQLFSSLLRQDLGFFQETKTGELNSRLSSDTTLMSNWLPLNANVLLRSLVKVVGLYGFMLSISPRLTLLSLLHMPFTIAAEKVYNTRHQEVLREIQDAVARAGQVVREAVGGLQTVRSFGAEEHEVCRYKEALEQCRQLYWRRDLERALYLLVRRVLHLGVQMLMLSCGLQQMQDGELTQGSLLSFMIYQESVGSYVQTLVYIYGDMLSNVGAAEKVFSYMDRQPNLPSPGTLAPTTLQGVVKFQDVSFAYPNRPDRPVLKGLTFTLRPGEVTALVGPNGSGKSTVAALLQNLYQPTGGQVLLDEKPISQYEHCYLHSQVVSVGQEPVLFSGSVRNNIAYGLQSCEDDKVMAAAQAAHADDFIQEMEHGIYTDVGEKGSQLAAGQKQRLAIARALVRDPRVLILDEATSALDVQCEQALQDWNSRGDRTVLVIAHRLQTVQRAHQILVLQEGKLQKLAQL

Molecule | Kd (TAP (Homo sapiens)) | co-precipitated viral factor relative to the TAP complex lacking fused ICP47 [1]
ICP47 (from UniProt P03170) | 50 nM | 
non-fused full-length ICP47(1-88) with C-terminal mVenus-myc-His10 tag (natural protein) MSWALEMADTFLDTMRVGPRTYADVRDEINKRGREDREAARTAVHDPERPLLRSPGLLPEIAPNASLGVAHRRTGGTVTDSPRNPVTR |  | 100%
